# Reference: US11397178B2, “Method of predicting progression of idiopathic pulmonary fibrosis and monitoring of therapeutic efficacy” (Cedars-Sinai Medical Center, priority 2016, dated 2022)
# Entries after “also recorded” stand apart in the source; their conditions may differ.
# Assays:
# [1] = tested on: CCR10+ cells; assay: Humanized NSG-GFP mice: KB004 / KB243 treatment (GFP IHC, flow cytometry); format: in vivo, human IPF cells in NSG-GFP mice; conditions: 5 mg/kg i.p. twice a week for 5 weeks, day 35
# Experimental: NSG-GFP mice. (A) IPF cells were injected intravenously into NSG-GFP mice, and 2 hours later groups of mice received either 5 mg/kg of KB004 (an afucosylated anti-EphA3 mAb) or KB243 (an isotype control) via intraperitoneal injection. Both groups of mice were injected twice a week with the antibodies for 5 weeks after which lungs and spleen were collected for histological and/or flow cytometric analysis. (B-C) Depicted are representative images of GFP-stained NSG mouse lung (red indicates the presence of transgenic GFP mouse cells) at day 35 after IPF lung injection in both the KB243 (B) and KB004 (C) treatment groups. (D) Flow cytometric dot plots depicting GFP^− staining for human-CD45, CCR10 and/or EpCAM proteins. Representative dot plots for (from left to right) GFP^− cells expressing CD45, CD45, and CCR10 or CCR10 alone in humanized NSG-GFP mice treated either with KB243 (top) or KB004 (bottom) antibodies are shown. (E-F) The average number of GFP^− CD45^+ CCR10^+ (E) and GFP^− Lin^− CCR10^+ (F) cells in non-humanized and humanized NSG mice treated with either KB243 or KB004. Data shown are mean±sem n=4-5/group. *p≤0.05
# Six to eight-week old, female, pathogen free NOD Cg-Prkdc^SCID IL2rg^Tm1wil Szi (NSG) or NOD.Cg-Prkdc^SCID IL2rg^tm1Wil Tg(CAG-EGFP) 10sb/SzJ (NSG-GFP) were purchased from Jackson Laboratories and housed in Cedars-Sinai Medical Center's high isolation animal rooms. […] All NSG groups were monitored daily and mice were sacrificed if there is evidence for morbidity such as weight loss of more than 20%, loss of fur, paralysis and/or lack of responsiveness when handled.
# Murine lung cellular suspensions were generated using a mouse lung dissociation kit, C-tubes, and a GentleMacs dissociator (Miltenyi Biotech). […] Unstained, isotype controls, fluorescent minus one controls and staining in non-humanized murine lung and spleen suspensions were utilized to gate out any non-specific antibody binding and background fluorescence. […]
# [2] = tested on: EphA3 expressing cells; assay: IPF explant cell challenged NOD/SCID mice treated with anti-EphA3 antibody; format: in vivo; conditions: listed as afucosylated anti-EphA3 antibody
# Source text: IHC analysis indicated the presence of these cells near honeycombing cysts, in the interstitium and their expansion in IPF lung biopsies and explants relative to normal lungs.
molecule,measurement,setting,value
"KB004: afucosylated anti-EphA3 mAb supplied by Kalobios; targets EphA3+ cells via antibody-dependent cell-mediated cytotoxicity (ADCC) (antibody, chains of the INN, looked up, V domains shown) VH: QVQLVQSGAEVKKPGASVKVSCKASGYTFTGYWMNWVRQAPGQGLEWMGDIYPGSGNTNYDEKFQGRVTMTRDTSISTAYMELSRLRSDDTAVYYCARGGYYEDFDSWGQGTTVTVSS VL: DIQMTQSPSFLSASVGDRVTITCRASQGIISYLAWYQQKPEKAPKRLIYAASSLQSGVPSRFSGSGSGTEFTLTISSLQPEDFATYYCGQYANYPYTFGQGTKLEIK","GFP cells in lung by IHC, KB004 compared with KB243",[1],fewer GFP cells
same,number of CD45+ CCR10+ cells compared with KB243 group,[1]; flow cytometry,significantly reduced
same,number of Lin- CCR10+ cells compared with KB243 group,[1]; flow cytometry,significantly reduced
same,fibrotic response / lung remodeling,[2],ameliorated the fibrotic response; also recorded: ameliorated lung remodeling
